# Test results published in IntAct's records for PubMed 22863753.
# B1: NLR family CARD domain-containing protein 3 (Homo sapiens), Q7RTR2 (parent)
# chain: MRKQEVRTGREAGQGHGTGSPAEQVKALMDLLAGKGSQGSQAPQALDRTPDAPLGPCSNDSRIQRHRKALLSKVGGGPELGGPWHRLASLLLVEGLTDLQLREHDFTQVEATRGGGHPARTVALDRLFLPLSRVSVPPRVSITIGVAGMGKTTLVRHFVRLWAHGQVGKDFSLVLPLTFRDLNTHEKLCADRLICSVFPHVGEPSLAVAVPARALLILDGLDECRTPLDFSNTVACTDPKKEIPVDHLITNIIRGNLFPEVSIWITSRPSASGQIPGGLVDRMTEIRGFNEEEIKVCLEQMFPEDQALLGWMLSQVQADRALYLMCTVPAFCRLTGMALGHLWRSRTGPQDAELWPPRTLCELYSWYFRMALSGEGQEKGKASPRIEQVAHGGRKMVGTLGRLAFHGLLKKKYVFYEQDMKAFGVDLALLQGAPCSCFLQREETLASSVAYCFTHLSLQEFVAAAYYYGASRRAIFDLFTESGVSWPRLGFLTHFRSAAQRAMQAEDGRLDVFLRFLSGLLSPRVNALLAGSLLAQGEHQAYRTQVAELLQGCLRPDAAVCARAINVLHCLHELQHTELARSVEEAMESGALARLTGPAHRAALAYLLQVSDACAQEANLSLSLSQGVLQSLLPQLLYCRKLRLDTNQFQDPVMELLGSVLSGKDCRIQKISLAENQISNKGAKALARSLLVNRSLTSLDLRGNSIGPQGAKALADALKINRTLTSLSLQGNTVRDDGARSMAEALASNRTLSMLHLQKNSIGPMGAQRMADALKQNRSLKELMFSSNSIGDGGAKALAEALKVNQGLESLDLQSNSISDAGVAALMGALCTNQTLLSLSLRENSISPEGAQAIAHALCANSTLKNLDLTANLLHDQGARAIAVAVRENRTLTSLHLQWNFIQAGAAQALGQALQLNRSLTSLDLQENAIGDDGACAVARALKVNTALTALYLQVASIGASGAQVLGEALAVNRTLEILDLRGNAIGVAGAKALANALKVNSSLRRLNLQENSLGMDGAICIATALSGNHRLQHINLQGNHIGDSGARMISEAIKTNAPTCTVEM
# partner: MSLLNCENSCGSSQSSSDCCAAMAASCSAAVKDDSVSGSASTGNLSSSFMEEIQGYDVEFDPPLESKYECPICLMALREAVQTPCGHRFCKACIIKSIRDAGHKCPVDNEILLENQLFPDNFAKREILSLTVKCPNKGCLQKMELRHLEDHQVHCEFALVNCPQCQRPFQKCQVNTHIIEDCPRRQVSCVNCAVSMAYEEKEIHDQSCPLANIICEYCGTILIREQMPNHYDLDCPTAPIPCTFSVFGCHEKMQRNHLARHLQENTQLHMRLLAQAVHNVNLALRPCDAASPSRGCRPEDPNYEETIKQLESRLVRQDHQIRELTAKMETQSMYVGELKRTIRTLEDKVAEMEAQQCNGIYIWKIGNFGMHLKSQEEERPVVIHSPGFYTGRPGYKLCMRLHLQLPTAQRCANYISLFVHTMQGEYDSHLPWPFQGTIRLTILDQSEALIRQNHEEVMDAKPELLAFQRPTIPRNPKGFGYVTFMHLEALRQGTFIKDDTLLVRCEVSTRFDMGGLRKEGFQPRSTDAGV
# Variants of: B1
# Settings: with traf6_mouse Traf6, P70196
row,Variant,effect of a mutation on the interaction
1,S457A;L458A;Q459A;E460A,decreasing interaction
